Data on 3 molecules can be found in patent US20130217582, “Library Compositions and Methods for Acyclic Identification of Aptamers” (published 2013).

The chains are these.
B1: FIXa aptamer rank 2 (SEQ 114/151) (ssRNA)
RNA: ACGACGCUCUUCCGAUCUAUGGAGGGCAGCCCGGUAGUCGCCCACGGGGAACGCGUCAAGCUAACGGAGCUCGUAUGC
B2: FIXa aptamer rank 3 (SEQ 122/152) (ssRNA)
RNA: ACGACGCUCUUCCGAUCUAUGGUCAUACGCGCAGGCUGGAGGUAUUACCCCCCGGGCAAGCUAACGGAGCUCGUAUGC
B3: FIXa aptamer rank 1 (SEQ 133/150) (ssRNA)
RNA: ACGACGCUCUUCCGAUCUAUGGUUCCAGUCGGUGAACUUCCUGAGUCCGGUGUGUGCAAGCUAACGGAGCUCGUAUGC

In this series the target is Coagulation factor IXa (FIXa) (Homo sapiens, UniProt P00740;P00740 P00740:47-191,P00740:227-461). Nature of the series: EMSA; estimated by mobility shift compared to a known FIXa aptamer; native PAGE 4 C; T7 transcript starts with GG before F5. The note with it: tags: Haematologic Technologies; immobilized on con-A beads for partitioning; putative G/U quadruplex.
Sequence of Coagulation factor IXa (FIXa) (P00740 47-191, chain 1 of 2): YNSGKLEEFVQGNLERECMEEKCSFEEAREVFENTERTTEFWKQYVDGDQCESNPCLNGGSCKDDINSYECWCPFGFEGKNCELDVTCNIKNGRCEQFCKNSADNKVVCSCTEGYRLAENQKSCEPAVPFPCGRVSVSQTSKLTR
Sequence of Coagulation factor IXa (FIXa) (P00740 227-461, chain 2 of 2): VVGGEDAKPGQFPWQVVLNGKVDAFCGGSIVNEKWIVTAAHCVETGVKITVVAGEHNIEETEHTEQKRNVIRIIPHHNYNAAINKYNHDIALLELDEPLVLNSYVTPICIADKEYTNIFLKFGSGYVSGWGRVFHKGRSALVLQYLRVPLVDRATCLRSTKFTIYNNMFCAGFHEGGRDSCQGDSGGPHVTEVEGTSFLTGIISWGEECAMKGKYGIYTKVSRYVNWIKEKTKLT
What is called Kd is the concentration at which binding is half-saturated. For the molecule B1, the Kd is around 220 nM.

In the case of B2, the Kd was around 700 nM.

Take B3: the Kd is around 220 nM.
